From article PMC8891976

How the values were obtained:
[1] = target: ASC (apoptosis-associated speck-like protein containing a CARD) (UniProt Q9ULZ3); experiment: real-time NMR
[2] = target: ASCb (alternative splicing isoform of ASC) (UniProt Q9ULZ3); experiment: real-time NMR

Row | Substance | k1aveCARD (average apparent rate constant k1 of the residues of the CARD) [1] [h⁻¹] | k1avePYD (average apparent rate constant k1 of the residues of the PYD) [1] [h⁻¹] | k2aveCARD (average apparent rate constant k2 of the residues of the CARD) [1] [h⁻¹] | k2avePYD (average apparent rate constant k2 of the residues of the PYD) [1] [h⁻¹] | k1 (apparent oligomerization rate constant, exponential fit) [2] [h⁻¹] | k1aveCARD (average apparent rate constant k1 of the residues of the CARD) [2] [h⁻¹] | k1avePYD (average apparent rate constant k1 of the residues of the PYD) [2] [h⁻¹] | k2 (apparent oligomerization rate constant, exponential fit) [2] [h⁻¹] | k2aveCARD (average apparent rate constant k2 of the residues of the CARD) [2] [h⁻¹] | k2avePYD (average apparent rate constant k2 of the residues of the PYD) [2] [h⁻¹] | reaction order m of oligomer formation (column of 495 μM) [2] | reaction order m of oligomer formation (column of 704 μM) [2]
1 | ASC (apoptosis-associated speck-like protein containing a CARD) (from UniProt Q9ULZ3 1-195) (natural protein) | 0.12 | 0.21 | 0.02 | 0.05 |  |  |  |  |  |  |  | 
2 | ASCb (alternative splicing isoform of ASC) (from UniProt Q9ULZ3-2 1-176) (natural protein) |  |  |  |  | 0.02 | 0.0288 | 0.0269 | 0.02 | 0.0288 | 0.0269 | 3.6 | 3.6
